This is an account of results in patent publication US20160297884A1 (Pfizer, published 2016).

Changes are numbered by the printed parent chain.

Test [1] has as its target T1, cynomolgus monkey BCMA (cynomolgus monkey, UniProt A0A2K5UD97 1-53).
T1 construct: Soluble analyte in SPR; construct not described; also called cyBCMA; Cyno BCMA
Briefly: SPR, IgG immobilised, 25 C. How it is done:
(§1) All experiments were performed on a Bio-Rad Proteon XPR36 surface Plasmon resonance biosensor (Bio-Rad, Hercules, Calif.). […] The analysis temperature for the immobilization was 25° C. and the running buffer was HBS-T+(10 mM HEPES, 150 mM NaCl, 0.05% Tween-20, pH 7.4). Channels were activated in the analyte (horizontal) direction by injecting a mixture of 1 mM ECD and 0.25 mM NHS for 3 minutes at a flow rate of 30 μL/min. IgGs were immobilized on the activated spots by injecting them in the ligand (vertical) direction at 20 μg/mL in 10 mM Acetate pH 4.5 buffer for 1.5 minutes at […]. The activated surfaces were blocked by injecting 1M ethanolamine, pH 8.5 in the analyte direction for 3 minutes at 30 μL/min.
(§2) The analysis temperature for the BCMA binding analysis was 37° C. or 25° C. in a running buffer of HBS-T+, supplemented with 1 mg/mL BSA. A kinetic titration method was employed for the interaction analysis as described in Abdiche, et al. Human BCMA (huBCMA) or cynomolgus monkey BCMA (cyBCMA) analyte was injected in the analyte direction using a series of injections from low to high concentration. The concentrations used were 0.08 nM, 0.4 nM, 2 nM, 10 nM and 50 nM (a 5-membered series, with a 5-fold dilution factor and top concentration of 50 nM). The association time for a given analyte dilution was two minutes. Immediately after the 50 nM BCMA injection, dissociation was monitored for 2 hours.
(§3) The sensorgrams were double-referenced and fit to a 1:1 Langmuir with mass transport kinetic titration model in BIAevaluation Software version 4.1.1 (GE Lifesciences, Piscataway, N.J.).
For orientation: In SPR one partner is held on a chip, and binding of the other changes the refractive index at the surface.

The target in test [2] is T2, Human BCMA (human, UniProt Q02223 1-54, limits assumed).
T2 construct: Soluble analyte in SPR; construct not described; also called huBCMA; B-cell maturation antigen
T2 sequence (looked up): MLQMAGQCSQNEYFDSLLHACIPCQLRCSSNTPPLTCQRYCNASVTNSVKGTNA
Briefly: SPR, IgG immobilised, 25 C. How it is done:
as §1, §2, §3

Test [3] addresses T1, cynomolgus monkey BCMA. Briefly: SPR, IgG immobilised, 37 C. A digest of the protocol: (§4)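 Rate constants come from a 1:1 Langmuir model including mass transport, fitted to double-referenced sensorgrams. Analyte was human or cynomolgus BCMA in five rising concentrations up to 50 nM over amine-coupled IgG; runs were at 25° C or 37° C.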
The target in test [4] is T2, Human BCMA. Briefly: SPR, IgG immobilised, 37 C. The gist of the method: as §4
In test [5] the target is BCMA (analyte of Table 4A). Briefly: SPR (Bio-Rad ProteOn XPR36), IgG amine-coupled, BCMA as analyte, kinetic titration; species of BCMA and temperature not stated for Table 4A. As to the method: as §1, §2, §3
BCMA (analyte of Table 4A), sequence (Q02223 whole entry): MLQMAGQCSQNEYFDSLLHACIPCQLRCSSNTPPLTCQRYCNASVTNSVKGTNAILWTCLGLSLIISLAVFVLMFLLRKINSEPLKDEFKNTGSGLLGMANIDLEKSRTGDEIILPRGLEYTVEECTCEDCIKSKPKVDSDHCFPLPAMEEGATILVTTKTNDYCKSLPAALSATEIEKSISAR
For test [6], the target named is T2, Human BCMA. Briefly: SPR, IgG immobilised, 37 C; huBCMA @25° C.

T1 sequence (A0A2K5UD97 entry or part of it): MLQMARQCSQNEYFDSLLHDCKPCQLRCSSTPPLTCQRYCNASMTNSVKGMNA

B1: L3.PY/P6E01 (antibody, V domains shown)
VH: EVQLLESGGGLVQPGGSLRLSCAASGFTFGSYAMTWVRQAPGKGLEWVSAISGSGGNTFYADSVKGRFTISRDNSKNTLYLQMNSLRAEDTAVYYCARVSPIASGMDYWGQGTLVTVSS
VL: EIVLTQSPGTLSLSPGERATLSCRASQSVSSSYLAWYQQKPGQAPRLLIYGASSRATGIPDRFSGSGSGTDFTLTISRLEPEDFAVYYCQHYPYPPSFTFGQGTKVEIK
notes: IgG
Broadly, the Kd is the free concentration of one partner at which half of the binding sites on the other are occupied at equilibrium, for simple one-to-one binding. In general, koff refers to a measure of how fast the partners let go of each other. As usually defined, the kon is the rate constant with which the complex forms. Regarding B1, in the test with cynomolgus monkey BCMA [1], binding was characterised by a dissociation constant (Kd) of 3.4 nM, the “T ½” value amounted to 3.9 min, the koff is 0.00293 s⁻¹ and the kon is 855000 M⁻¹ s⁻¹. In the test with Human BCMA [2], the Kd amounted to 0.32 nM, the “T ½” value was found to be 50.7 min, the dissociation rate constant (koff) was 0.000228 s⁻¹ and the kon came to 712000 M⁻¹ s⁻¹. In the test with cynomolgus monkey BCMA [3], the affinity, expressed as Kd, was 5.96 nM; the “T ½” value is 0.88 min; the koff is 0.0131 s⁻¹; the kon stood at 2.2e+06 M⁻¹ s⁻¹. Further, in the test with Human BCMA [4], binding was characterised by a dissociation constant (Kd) of 0.74 nM, the “T ½” value amounted to 5.91 min, the koff amounted to 0.00196 s⁻¹ and the kon was determined as 2.65e+06 M⁻¹ s⁻¹.

B2: L3.PY/H3.TAQ (antibody, V domains shown)
VH: B1 VH with A97T, S104A, G105Q
VL: B1 VL
notes: Tested as IgG
In test [5], B2 gave an equilibrium dissociation constant (Kd) of 0.053 nM, a koff of 0.00014 s⁻¹, an on-rate constant (kon) of 2.6e+06 M⁻¹ s⁻¹ and a t1/2 of 84 min.

B3: L3.NY/P6E01 (antibody, V domains shown)
VH: B1 VH
VL: B1 VL with P93N
notes: IgG
Regarding B3, in the test with cynomolgus monkey BCMA [1], the dissociation constant (Kd) stood at 2.8 nM, the “T ½” value turned out to be 4 min, the koff was 0.00287 s⁻¹ and the kon was determined as 1.01e+06 M⁻¹ s⁻¹. Also, in the test with Human BCMA [2], the affinity, expressed as Kd, was 0.44 nM; the “T ½” value turned out to be 30.1 min; the koff worked out at 0.000384 s⁻¹; the kon turned out to be 876000 M⁻¹ s⁻¹.

B4: L3.PY/L1.PS/H2.QR (antibody, V domains shown)
VH: B1 VH with S63Q, V64R
VL: B1 VL with L34P, A35S
notes: IgG
B4: the koff with Human BCMA [6] is 0.103 s⁻¹. In the test with cynomolgus monkey BCMA [3], binding was characterised by a dissociation constant (Kd) of 1.28 nM, the “T ½” value stood at 17.2 min, the off-rate constant (koff) came out at 0.00067 s⁻¹ and the kon was determined as 525000 M⁻¹ s⁻¹. For the same molecule, in the test with Human BCMA [4], binding was characterised by a dissociation constant (Kd) of 25.9 nM, the “T ½” value was 0.11 min and the kon was determined as 3.97e+06 M⁻¹ s⁻¹.

B5: A02_Rd4_6nM_C01 (antibody, V domains shown)
VH: EVQLLESGGGLVQPGGSLRLSCAASGFTFSSYAMNWVRQAPGKGLEWVSAITASGGSTYYADSVKGRFTISRDNSKNTLYLQMNSLRAEDTAVYYCARYWPMSLWGQGTLVTVSS
VL: EIVLTQSPGTLSLSPGERATLSCRASQSVSAYYLAWYQQKPGQAPRLLMYDASIRATGIPDRFSGSGSGTDFTLTISRLEPEDFAVYYCQQYERWPLTFGQGTKVEIK
On to B5, for which, in test [5], the equilibrium dissociation constant (Kd) amounted to 0.024 nM, the koff worked out at 2.8e-05 s⁻¹, the kon was 1.2e+06 M⁻¹ s⁻¹ and the t1/2 is 411 min.

B6: COMBO_Rd4_0.6nM_C29 (antibody, V domains shown)
VH: B5 VH with A33P, N35S, T52G, A53G, T58L, Y59P, S103D, L104I
VL: B5 VL with A31S, Y32S, E93Q, R94S
notes: Tested as IgG
As for B6, in test [5], the dissociation constant (Kd) came to 0.021 nM, the dissociation rate constant (koff) came to 0.00014 s⁻¹, the on-rate constant (kon) was 6.6e+06 M⁻¹ s⁻¹ and the t1/2 was 83 min.

B7: A02_Rd4_6nM_C16 (antibody, V domains shown)
VH: B5 VH with T52S, A53D, S54F, S103D, L104I
VL: B5 VL with A31D, Y32L, E93Q, R94T
notes: Tested as IgG; also called P5AC16
As to B7, in test [5], the Kd came to 0.059 nM, the off-rate constant (koff) was determined as 6.2e-05 s⁻¹, the kon was found to be 1.1e+06 M⁻¹ s⁻¹ and the t1/2 came out at 187 min.
